From patent US20140134169A1, “Methods of Treating Ovarian Cancer with Dll4 Antagonists” (Regeneron Pharmaceuticals, Inc., priority 2012, published 2014) come the findings set out here.

One data set has as its system human HCT116 tumor cells. Briefly: Growth of human HCT116 tumors in humanized Dll4 SCID mice (irinotecan study). The following applies: REGN421 2 mg/kg sc (6 mg/kg total). The format is in vivo. Here is the method: Each mouse was implanted subcutaneously (sc) with 5×10^6 human HCT116 tumor cells. […] The mice were then treated with hFc, REGN421, irinotecan or combination of REGN421 and irinotecan. A total of 30 mice were divided into 6 groups (n=5 per cohort). The first group was treated sc with hFc at 2 mg/kg; the second group was treated sc with REGN421 at 2 mg/kg; the third and fourth groups were treated ip with irinotecan at 7.5 and 25 mg/kg, respectively; the fifth group was treated sc with REGN421 at 2 mg/kg and ip with irinotecan at 7.5 mg/kg; and the sixth group was treated sc with REGN421 at 2 mg/kg and ip with irinotecan at 25 mg/kg. REGN421 was administered every 3-4 days starting on day 15 and mice received three doses total. Irinotecan was administered every 3-4 days starting on day 15 and mice received three doses total.
To assess the effects of REGN421 and irinotecan as single agents or in combination treatments, the changes in tumor size (volume) are measured, starting three days before the initial REGN421 treatment, and then on the day of each agent treatment (days 15, 19, 22) and thereafter every 3-4 days until tumors reach ˜600 mm^3 in size. In vivo tumor size is calculated using the formula (length×width^2)/2.

A short description of data set [1]: Phase I pharmacokinetics, single 30-min IV infusion, ELISA. The data set is classed as in vivo, human. Here is the method:
REGN421 is currently being studied in a first-in-human trial. The primary objective of the study is to determine the recommended dose of REGN421 for future efficacy trials. The secondary objectives are to characterize the drug safety profile, its pharmacokinetics, immunogenicity, and pharmacodynamics, as well as preliminary evidence of efficacy. In this study, anti-hDll4 antibody REGN421 is administered intravenously every 3 weeks to patients whose cancer has progressed on conventional therapy. The study design follows standard methodology for dose escalation and definition of dose-limiting toxicity. To date, 7 patients have been treated at 0.25 mg/kg/dose every three weeks, and 6 patients have been treated at 0.50 mg/kg/dose every three weeks. For the pharmacokinetic study, blood samples were taken at pre-dose, 0 hour, and post-dose 1, 2, 4 and 8 hours on Day 1, followed by Days 2, 3, 4, 8 and 15 of Cycle 1; and pre-dose, 0 hour on Day 1 of Cycles 2, and post-treatment follow-up on Days 15, 30 and 60. Plasma/serum levels of REGN421 in the samples are measured by ELISA with an upper limit of quantification of 2.5 μg/mL and a lower limit of quantification of 0.039 μg/mL in the undiluted serum sample. The study is ongoing with the intent to administer higher doses, defined in the protocol as 1, 2, 4, and 7 mg/kg/dose.
The currently available data showing plasma pharmacokinetic parameters following single 30-min. Cmax: Maximum serum concentration of the drug; Tlast: Time to the last quantifiable concentration of the drug; Clast: Last quantifiable concentration of the drug; AUClast: Area under curve up to the last concentration of the drug; AUC: Total area under the curve (i.e., drug exposure); t1/2Z: Terminal half life; Vss: Volume of distribution at steady state; CL: Drug clearance rate. Values are: mean, (CV %), and [range] (a: median [range]).
A general note: In an ELISA, binding on a coated surface is turned into a signal by an enzyme label.

The test system of data set [2] is Hey-1 transcript (Dll4-notch signaling pathway). Briefly: Hey-1 transcript in Phase I patient samples (microarray). The following applies: all samples, 0.25 and 0.5 mg/kg. The format is in vivo, human. The protocol:
The pharmacodynamic effect of REGN421 on the Dll4-notch signaling pathway has been analyzed using microarray technology on the patient serum samples collected prior to as well as 24 hours following REGN421 administration.

For another data set, the system named is A2780 cells. Nature of the data set: A2780 ovarian xenograft (intraperitoneal) tumor growth inhibition. The format is in vivo, human. The following applies: for % TGI: REGN421 2.5 mg/kg 1x/week. The protocol:
(§1) Ovarian tumor xenograft cells were implanted into humanized Dll4 SCID mice or vendor SCID mice (i.e., SCID mice expressing native murine Dll4). After implantation, mice were treated with REGN421 (anti-human Dll4 antibody, binds to human Dll4), mDll4Ab1 (anti-murine Dll4 antibody, binds to murine Dll4), or a human Fc domain control protein. In one study, mice were treated with VEGF-Trap, mDll4Ab1 or VEGF-Trap plus mDll4Ab1. TOV-112D cells (5×10^6) were implanted subcutaneously into the right flank of humanized Dll4 (n=4) or vendor SCID mice (n=7). Treatment with REGN421 (2.5 mg/kg, 1×/week) or mDll4Ab1 (5 mg/kg, 1×/week) vs. hFc control was initiated one week after tumor cell implantation. Animals were treated for 2 to 3 weeks. A2780 cells (2×10^6) were implanted intraperitoneally into humanized Dll4 or vendor SCID mice (n=4-5). Treatment with REGN421 (2.5 mg/kg, 1×/week) or mDll4Ab1 (5 mg/kg, 1×/week) vs. hFc control was initiated one week after tumor cell implantation. For the A2780 combination study, simultaneous treatment with mDll4Ab1 (5 mg/kg, 1×/week) and VEGF-Trap (10 mg/kg, 2×/week) was initiated one week after tumor cell implantation. A VEGF-Trap single treatment arm was included in this study. Animals bearing A2780 tumors were treated for 4-5 weeks. SKOV-3 cells (5×10^6) in matrigel were implanted subcutaneously and tumor-bearing animals (n=10) were dosed with REGN421 (2.5 mg/kg) and mDll4Ab1 (5 mg/kg) once weekly. OVCAR-3 cells (1×10^7) were implanted subcutaneously into the right flank of vendor SCID mice (n=7). Treatment with mDll4Ab1 (5 mg/kg 1×/week) vs. hFc control was initiated 66 days after tumor cell implantation. Animals were treated for a total of 5 weeks. Tumor growth inhibition (TGI) was measured as detailed above.
(In general: In xenograft studies the graft and the host belong to different species.)

Another data set has as its system SKOV-3 cells. Nature of the data set: SKOV-3 ovarian xenograft (subcutaneous) tumor growth inhibition. The data set is classed as in vivo, human. The following applies: Humanized Dll4 SCID mice; REGN421 2.5 mg/kg once weekly; 2.5 mg/kg. Here is the method:
as §1, with “SKOV-3 cells (5×10^6) in matrigel were implanted subcutaneously and tumor-bearing animals (n=10) were dosed with REGN421 (2.5 mg/kg) and mDll4Ab1 (5 mg/kg) once weekly. OVCAR-3 cells (1×10^7) were implanted subcutaneously into the right flank of vendor SCID mice (n=7). Treatment with mDll4Ab1 (5 mg/kg 1×/week) vs. hFc control was initiated 66 days after tumor cell implantation. Animals were treated for a total of 5 weeks.” left out

B1: REGN421 (antibody, V domains shown)
VH: QVQLVESGGGVVQPGRSLRLSCAASGFTFSSYGMHWVRQAPGKGLEWVSFLWYDGTNKNYVESVKGRFTISRDNSKNMLYLEMNSLRAEDTAVYYCARDHDFRSGYEGWFDPWGQGTLVTVSS
VL: EIVLTQSPATLSLSPGERATLSCRASQSVSSYLAWYQQKPGQAPRLLIYDASNRATGIPARFSGSGSGTDFTLTISSLEPEDFAVYYCQHRSNWPPTFGGGTKVEIK
As a reminder, the AUC is the area under the concentration-time curve, a measure of exposure. A word on the Cmax: it is the highest concentration seen after dosing. By Vss is commonly meant a proportionality between amount in the body and measured concentration, not a real space. A low value points to confinement near the circulation. Consider B1, for which, in the data set with human HCT116 tumor cells, the “TGD” value is given as 9 days and the “TGI(%) at Day 39” value turned out to be 81.3%. Further, in data set [1] (0.25 mg/kg IV, n = 7, mean), the AUC was determined as 489 µg·h/mL, the AUClast turned out to be 452 µg·h/mL, the CL is 0.0473 L/h and the Cmax is 6270 ng/mL. In addition, in data set [1] (0.25 mg/kg IV, n = 7, mean), the T1/2Z is 47.1 h and the distribution volume (Vss) was determined as 2.85 L. The same molecule showed a Tlast in data set [1] (0.25 mg/kg IV, n = 7, median) of 170 h. For the same molecule, in data set [1] (0.5 mg/kg IV, n = 2, mean), the AUC worked out at 963 µg·h/mL, the AUClast was found to be 759 µg·h/mL, the CL turned out to be 0.0355 L/h and the Clast was determined as 2240 ng/mL. In addition, in data set [1] (0.5 mg/kg IV, n = 2, mean), the Cmax was determined as 9880 ng/mL, the T1/2Z worked out at 92.3 h and the Vss is 3.64 L. For the same molecule, the Tlast in data set [1] (0.5 mg/kg IV, n = 2, median) is listed as 203 h. Moreover, the “expression of the Hey-1 gene compared to pre-treatment samples” value in data set [2] is recorded as “reduced”. In addition, the “% TGI” value in the data set with A2780 cells (Humanized Dll4 SCID mice, 2.5 mg/kg) was 83%. Besides, the “% TGI” value in the data set on A2780 cells (SCID mice (native murine Dll4), mDll4Ab1 5 mg/kg 1x/week, VEGF-Trap 10 mg/kg 2x/week) is on record as −37%. For the same molecule, in the data set with A2780 cells (vendor SCID mice), the “anti-tumor activity (in words)” value is recorded as “did not exhibit any appreciable anti-tumor activity”. For the same molecule, in the data set on SKOV-3 cells, the “% TGI” value turned out to be 61%.
